Assay: soluble on expression in E. coli; label from the status in PepcDB or PDB records

Sequence: MGWPFIGETISFFKPHRSDSIGTFLQQRVSRYGKVFKSNICGGKAVVSCDQELNMFILQNEGKLFTSDYPKAMHDILGKYSLLLATGEIHRKLKNVIISFINLTKSKPDFLHCAENLSISILKSWKNCREVEFHKEVKIFTLSVMVNQLLSIKPEDPARLYVLQDFLSYMKGFISLPIPLPGTGYTNAIKVRSNRNIHQNAIIEDMNNAIREEDFLDSIISNEDEEHAAIRAKKGDGELLNWEDYQKMEFTQCVISEALRCGNIVKTVHRKATHDIKFNEYVIPKGWKVFPIFTAVHLDPSLHENPFEFNPMRWTKTTAFGGGVRVCPGGELGKLQIAFFLHHLVLSYRWKIKSDEMPIAHPYVEFKRGMLLEIEPTKFLED
- soluble on expression in E. coli: soluble

Sequence: MQDDKKVAFPGDMIATTEEYLPGKNTEEKNGEIIAVKFGQIIRDDINLLISVDTQKKEFTLKKGDIVYGQVVKGEQHRYIVRIVGAFQKGLGLREIDEEMQLSLGIARRPQSDFIAIGDLIRGYVIRTGDFPEISINGNHYGVISAVCLRCRQPLVKRGITLYCENCQRTEIRKMADDYGNVDIFNYENRIQNQVKANGKRRLEHHHHHH
- soluble on expression in E. coli: soluble

Sequence: GYALTEGEDYLVLDKPIPQEQSGKIEVLEFFGYFCVHCHHFDPLLLKLGKALPSDAYLRTEHVVWQPEMLGLARMAAAVNLSGLKYQANPAVFKAVYEQKIRLENRSVAGKWALSQKGFDGKKLMRAYDSPEAAAAALKMQKLTEQYRIDSTPTVIVGGKYRVIFNNGFDGGVHTIKELVAKVREERKRQTPAVQK
- soluble on expression in E. coli: soluble

Sequence: MGSDKIHHHHHHLEFWDGLSGGKAITPLKKEEIKHIEKQLGSRLPKSYLKKMEEQNGGDIAFNSVVVNFKNSWSDEETGLYLPLYEFMPLTIGKFVENTSVLNEWGLAGKKMIFGEGEGSYLWYFDFDENPKNPEVWCLDISDETAHLVAESFEALLPNLKKRANDDVLTHEDVFADYPSMCEIRETIKGTDEDARLEAYRMWLTRCEDLEGLIAELRQRVEHSDEEDELDSYAELLAEVLINYTSEEFMTYEEAIALFNKKEDVSDLSHVIVQLESEV
- soluble on expression in E. coli: not soluble

Sequence: MSLSDVAKKVGVSPITISRALRNPEIVSEDLRQTILRTVDEMGYIPNLAARALAGRHNGTVGVITPALHQHGFAGLMLGIEDRLRATEFGVQYSNTLHHADGEAGQLKSFLMQKPAGVIIAGAESYHDLLPLIEKAACPIAHITDLSQEPERLVVGLDHHAAGAEPTRFLLSRGYQRIGFIGGGTDVRSRRRREGYEAAMREAGRFDPDLAIGADAAGTTGLGRELLTRLLARVPDIDAVFAQNDELALGVLIECGVRGIRVPENFGICGFNDLEFSAFTEPSLTTVHIPRYEVGYRVADMLLRAVRSEPPGEEKVDCGFSVIPRGSTREGHHHHHH
- soluble on expression in E. coli: soluble

Sequence: MAHHHHHHMNTHVISVGSRWVHHEVTQALRQRRGVRVEVNEELQHCDFASRASSVLYCDAHSAEMQRDQASLVLRLQEARQRCGTQPVILMVRMDSDNEVSLERLSWLNLECGVAQQCGLILVWSLDDAVQYLASLAAYAVTSLEFTGAARPYVGDAPLPVLVDALTQTPQVVTRNDVVRIANRKTSVADALMSEASEWEGIAGLGRKKAARLQHLFRTPFLSSQQRIDSFVPATGGSSFSTASKAAESHLSQPTGESTARPTEALSVDTAVTTEGRRRMMSALQQRLDKEDEEGGE
- soluble on expression in E. coli: not soluble

Sequence: MSLSNYSTGELAKLCNVTTRTIQYYDRKGILKPQGFTEGKRRVYTEQQRQTLELILLLKDLGCALSDIDMLLKGEGTLKTLNTLLTMKQQEINQQVKQQQAVLNKIKNVQYYVNEASTSPITHLKDIEHVMSKSAEGHHHHHH
- soluble on expression in E. coli: soluble

Sequence: MSRDLPSLNALRAFEAAARLHSISLAAEELHVTHGAVSRQVRLLEDDLGVALFGKDGRGVKLTDSGVRLRDACGDAFERLRGVCAELRRQTAEAPFVLGVPGSLLARWFIPRLDQLNRALPDLRLQLSTSEGEFDPRRPGLDAMLWFAEPPWPADMQVFELAPERMGPVVSPRLAQETGLAQAPAARLLQEPLLHTASRPQAWPAWAASQGLAAEALRYGQGFEHLYYLLEAAVAGLGVAIAPEPLVRDDLAAGRLAAPWGFIETDARLALWVPARLHDPRAGRLAQWLREQLAG
- soluble on expression in E. coli: not soluble

Sequence: SEDHQHVPIDIQTSKLLDWLVDRRHCSLKWQSLVLTIREKINAAIQDMPESEEIAQLLSGSYIHYFHCLRILDLLKGTEASTKNIFGRYSSQRMKDWQEIIALYEKDNTYLVELSSLLVRNVNYEIPSLKKQIAKCQQLQQEYSRKEEECQAGAAEMREQFYHSCKQYGITGENVRGELLALVKDLPSQLAEIGAAAQQSLGEAIDVYQASVGFVCESPTEQVLPMLRFVQKRGNSTVYEWRTGTEPSVVERPHLEELPEQVAEDAIDWGDFGVEAVSEGTDSGISAEAAGIDWGIFPESDSKDPGGDGIDWGDDAVALQITVLEAGTQAPEGVARGPDALTLLEYTETRNQFLDELMELEIFLAQRAVELSEEADVLSVSQFQLAPAILQGQTKEKMVTMVSVLEDLIGKLTSLQLQHLFMILASPRYVDRVTEFLQQKLKQSQLLALKKELMVQKQQEALEEQAALEPKLDLLLEKTKELQKLIEADISKRYSGRPVNLMGTSL
- soluble on expression in E. coli: soluble

Sequence: MGHHHHHHSHMRPLTEEETRVMFEKIAKYIGENLQLLVDRPDGTYCFRLHNDRVYYVSEKIMKLAANISGDKLVSLGTCFGKFTKTHKFRLHVTALDYLAPYAKYKVWIKPGAEQSFLYGNHVLKSGLGRITENTSQYQGVVVYSMADIPLGFGVAAKSTQDCRKVDPMAIVVFHQADIGEYVRHEETLT
- soluble on expression in E. coli: soluble

Sequence: MAHHHHHHMGQAFMEDQGNSLVVWGSTGRRLQFSMQDLKMPASLRDTPHFHFYEKQWDAVASFWFNRVLKESALQHLSVEAIVELIRQDISKRWERRREEQSIYKKRKRLLQRSGPAGTPSASVLLTNVTTLDGYQAATEMEQRDLVTALVERVEDVANDKVESWQVLVDDASEQRPAKAARVEGTAATSGEHPENDADGASDFDDRVAVVLKLSSKEKAATTIAHLHGSRFDDRRVLCRFWSE
- soluble on expression in E. coli: soluble

Sequence: MHDLDRNEDRLRGTYDFPFEFHHIDHNHPRYVMSYHWHVEYEIIRILDGSLTVTLDEKSFTATAGDIIFVHSGILHSGIPEDCVYQCIVFDGNTFLKNNSVCAGYMQKIIHQEILIYHHFTPKYVDICATVNSLFDALWKKPSGYELSVLGQFYHFFGLIFGNHYYLESVTRARRDYKRILQLKQVLDFIEHNYASPLTLQQLSASVSMSPKYFCRFFSEMTHQTPMDYLNHQRIEQACYQLSTTDDSITEIAYRNGFNDLSYFIRTFKKYKGITPGKYKKA
- soluble on expression in E. coli: not soluble

Sequence: MGSSHHHHHHSSGLVPRGSHMNSILITGCNRGLGLGLVKALLNLPQPPQHLFTTCRNREQAKELEDLAKNHSNIHILEIDLRNFDAYDKLVADIEGVTKDQGLNVLFNNAGIAPKSARITAVRSQELLDTLQTNTVVPIMLAKACLPLLKKAAKANESQPMGVGRAAIINMSSILGSIQGNTDGGMYAYRTSKSALNAATKSLSVDLYPQRIMCVSLHPGWVKTDMGGSSAPLDVPTSTGQIVQTISKLGEKQNGGFVNYDGTPLAW
- soluble on expression in E. coli: soluble

Sequence: MAHHHHHHMRRTAFSLMIVPPESHRYAKATFHEGVHRQAPGDSTPWRDVASPLNRFKMWWLAPAAKGTMTAAWCMTIVMGAYCFSIQQDAKGTYLLNNVLLRTLHEEAMRADANQERANELQEYLKQRLEKLEAGGKAASRNMGGDAVKEGLINHELEISRERVRSDSIHQRNQQLVDELLKVRQELAVTRKKHSAALSEIDKLQKLLKACT
- soluble on expression in E. coli: not soluble

Sequence: MSLRVIDTHCDALYKLQAGKGKYTFQDAEELDVNFERLIEAKMLLQGFAIFLDEDIPVEHKWKKAVEQVNIFKQHVLHKGGIIHHVKKWCDLENLPEDKIGAMLTLEGIEPIGRDLDKLTQLLDGGVLSVGLTWNNANLAADGIMEERGAGLTRFGKDIIHLLNERKVFTDVSHLSVKAFWETLEQAEFVIASHSSAKAICAHPRNLDDEQIKAMIEHDAMIHVIFHPLFTTNDGVADIEDVIRHIDHICELGGMKNIGFGSDFDGIPDHVKGLEHAGKYQNFLETLGKHYTKEEVEGFASRNFLNHLPKEGHHHHHH
- soluble on expression in E. coli: soluble

Sequence: MGSDKIHHHHHHMSLSRLSIDAFRNIDSAQLAPGAGLNLIYGHNGSGKTSILEAIYFLGMGRSFRSHLSQRVIQNDADCLTLFAVAEGQAGDSRIGLRRHRSGDTEVKIDGEKVKRLSQLAEALPIQVITPESFSLLFEGPSARRQFIDWGAFHASKQFHLAWMNTRRILKQRNQLLRDGASYEHIAFWDKELIRYALEVTAIRNDYVGSLNGVLKGIIGEFLPDVDIRVSFTRGWDSKTDFSELLQSQYARDLAIGHTVSGPHKADLRLRVGNLPAQDALSRGQLKLLVCALRIAQGKLLKQQIDKHSIYLVDDLPSELDAKHRQLLLKELIDTGAQLFVTAIEPSAIVDSLPVPPDRMFHVQAGRVTQTK
- soluble on expression in E. coli: not soluble

Sequence: NNAKEALELCDKRDWDLAELSYRYELQFHTKEEICAYCLEIWEVMQEVYYNGTHPNEDYLPGKLHLKRRAKGLKERVAMTADPMGIIDFISLYAIAIAEENASGAKVVTAPTNGACAVIPAVMLYLKNHTIGFSDEKVIEFLLTAMLIGSFYKKNASISGAEAGCQAEIGSASSMAAAAMATVLGANAFKACNAAEMAMEHHLGLTCDPVAGLVQIPCIERNAFGAIKAISAARMAMTRKSTPMVSLDEVIETMYETGKDMNYKYKETSLGGLATN
- soluble on expression in E. coli: not soluble

Sequence: MSLSNAVRITALHTRLARIPLPRPLKTSIHEIADVCCLLVSLETDAGVTGEGYGFCFNADRLGAIAQFTQSLAPLVVGRDPHDVEALWTDFLRGCNFYGQSGVSILAYNPIDIACWDIVGKLAGRPLYKLFGAHRERVPVYASAGLWLSSSRDELRDEARQFLAQGFKAMKMRLGSPDWKEDIARVEVVRDAIGEQVTLMADANQGLDLTRALRLGRELARFDLAWFEEPVPTWDDDSAAEIVRRLPMPIASGETEYTRYGIRRMARERAAGVFMPDLQRMGGYTEMLKAVRYLAAHDLPVAPHIFTEHSLHIVAAAGNATWAEHMPWFEPLFHERMEIGADGCIAAPDRPGTGFTFDWQRIDPYLISPRTAGGSEGHHHHHH
- soluble on expression in E. coli: soluble

Sequence: MAIETEDIKYEESFIKNTRGFKLFTCRWLPTNREPRALVFLCHGYGMECSITMNSTARRLVKAGFAVYGMDYEGHGKSDGLSAYISNFDRLVDDVSTHYTAICEREENKWKMRFMLGESMGGAVVLLLGRKNPDFWDGAILVAPMCKIAEEMKPSPFVISILTKLISIIPKWKIIPSQDIIEISYKEPEIRKQVRENPLCSKGRPRLKTAYELLRISNDLEKRLQEVSLPFLVLHGDDDKVTDKAVSQELYKVALSADKTLKLYPGMWHGLLTGETPENIEIVFADVISWLEKRSDYGNDRFESELKQRNDRLNFKK
- soluble on expression in E. coli: soluble

Sequence: MVMPESHIHNIPMEQCVLVALMTFALSYELIAQDLDEGCFYPERHKQIYNAIVELANENQPYDVVMVEQRLKSKNLLHVLGGEQYLKIMLAEAPSSFHSMEPYITQLKKLKAHRQVEWLGQRISSMAQDTTQPDVFAEAENILGQVDNQEQSDQGMSFEAALDMALTEMIEKAEAKDKQQFTGVKFNLKHLDELLGTVQKGHFCVVGGRPGSGKSTLAQMLALDTASSFGKGVLFISAEMDQSTLANRMISALGLIPYHNIHNAELYNGLMKDYADAKAAYQRLPIWIQPKQKPSLSEVRSYARRAKRRYKELGCIIVDYLQLLRDPSKKDRFQEVSSISRELKSMAKEFECPVIALVQLNREAEKGKRPKASDIKESGQIEQDADQIILVNPLTDPEDSTKPMGITELIVVKNRHGKRGAVRVLDYLETCRFRSVEEQAEP
- soluble on expression in E. coli: not soluble

Sequence: MAPAPRFSAEEQERLIICAAIKAIEESSLLDFSMSAIAKLAGLSMGSVYKFVQCKEDVLIALATRMYQERQSVFKKVLALPLTTPERIIATSLLDFSKVQMYNFDNQLESIVNTEAMMKRCSERWLTQMIACGERCQTMFQQFLQNAADSGELTSGSRDIEEINLGTWSLSVGYFQTVRLHQCWHNDLDENIDGINDEENEKNTLVLAADNAHIRTMKRLVNTYDWQQKISDDDIEKVCLHLADAALR
- soluble on expression in E. coli: not soluble

Reference: the DeepSol protein solubility set
